In data set [1] the test system is TcL5 (ribosomal protein L5) (Trypanosoma cruzi CL Brener). As to the kind of experiment: filter binding. The conditions noted are these: 10 mM Tris pH 7.4, 1 mM EDTA, 100 mM NaCl, 0.1% NP40, 100 ug/mL BSA; room temperature, 30 min; 0.5 fmol RNA in 50 ul, 0-500 nM protein.
Data set [2] has as its system TcP37/NRBD (Trypanosoma cruzi CL Brener). The experiment in a line: filter binding. The conditions noted are these: 10 mM Tris pH 7.4, 1 mM EDTA, 100 mM NaCl, 0.1% NP40, 100 ug/mL BSA; room temperature, 30 min; 0.5 fmol RNA in 50 ul, 0-500 nM protein.
The target in data set [3] is TcP37/NRBD (T. cruzi (endogenous in CL Brener epimastigotes)). The experiment in a line: co-IP; anti-P34/P37 antibody cross-linked to Protein A Dynabeads, 1 mg epimastigote whole cell extract, 4°C overnight, washed in PBS-T; pellet and supernatant blotted with anti-TcL5 peptide antibody; extracts with or without RNase A (20 U/ml, 1 hour, 37°C).
The target in a further data set is rTcL5 (T. cruzi). The experiment in a line: co-IP; 500 ng rTcP37/NRBD and 500 ng rTcL5, with or without 500 ng in vitro transcribed Tc 5S rRNA, applied to TcL5 antibody cross-linked Dynabeads; eluate and supernatant blotted with P34/P37 antibodies.

As for Tc 5S rRNA, the Kd in data set [1] came to 11 nM; in data set [2], 63 nM. As for TcL5 (natural protein), the decrease of the association after RNase A treatment of the extract in data set [3] turned out to be 74%.

With rTcP37/NRBD (natural protein), the increase of the association in the presence of 5S rRNA in the data set with rTcL5 (T. cruzi) is 62%.
